Test results published in PMC6547421, “A unique exonuclease ExoG cleaves between RNA and DNA in mitochondrial DNA replication” (Nucleic Acids Research, 2019).
Residue numbers refer to the chain shown, from its start. In names and notes the source's numbering stands.

Columns and labels:
[1] = target: T1, ExoG-H140A (catalytically dead) (Homo sapiens, UniProt Q9Y2C4 42-368, H140A); assay: crystal structure (2.8 A); Mg2+; one duplex per protomer; FP: 10 nM FAM substrate, 10 mM HEPES pH 7.4, 150 mM NaCl, 2.5 mM MgCl2; temperature not stated; conditions: protein: recombinant; tags: N-terminal His; chain copies: 2; 12-bp duplex
T1 sequence: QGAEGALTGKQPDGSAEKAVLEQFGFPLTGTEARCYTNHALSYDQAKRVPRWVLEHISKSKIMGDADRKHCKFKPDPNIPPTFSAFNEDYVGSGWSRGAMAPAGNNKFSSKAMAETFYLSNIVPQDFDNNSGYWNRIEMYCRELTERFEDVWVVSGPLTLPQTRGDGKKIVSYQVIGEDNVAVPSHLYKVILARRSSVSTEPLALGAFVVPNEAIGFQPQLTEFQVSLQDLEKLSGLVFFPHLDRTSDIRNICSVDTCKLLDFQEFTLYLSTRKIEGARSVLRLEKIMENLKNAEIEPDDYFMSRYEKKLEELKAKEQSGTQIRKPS

[2] = target: T1, ExoG-H140A (catalytically dead); assay: crystal structure (2.3 A); Mg2+; one duplex per protomer; FP: 10 nM FAM substrate, 10 mM HEPES pH 7.4, 150 mM NaCl, 2.5 mM MgCl2; temperature not stated; conditions: protein: recombinant; tags: N-terminal His; chain copies: 2; blunt, self-complementary, 2 copies of strand
ExoG-H140A/F168A = target: T2, ExoG-H140A/F168A (Homo sapiens, UniProt Q9Y2C4 42-368, H140A;F168A); assay: fluorescence polarization; 2.5 mM Mg2+; FP: 10 nM FAM substrate, 10 mM HEPES pH 7.4, 150 mM NaCl, 2.5 mM MgCl2; temperature not stated; conditions: protein: recombinant; tags: N-terminal His; chain copies: 2; label: 3'-FAM strand 1; 5'-biotin strand 2; 20-bp duplex, 26-nt 3' overhang on strand 2
T2 sequence: T1 sequence with F127A

[3] = target: T1, ExoG-H140A (catalytically dead); assay: as above; conditions: protein: recombinant; tags: N-terminal His; chain copies: 2; label: 3'-FAM strand 1; 5'-biotin strand 2; 20-bp duplex, 26-nt 3' overhang on strand 2
ExoG-H140A/N176A = target: T3, ExoG-H140A/N176A (Homo sapiens, UniProt Q9Y2C4 42-368, H140A;N176A); assay: as above; conditions: protein: recombinant; tags: N-terminal His; chain copies: 2; label: 3'-FAM strand 1; 5'-biotin strand 2; 20-bp duplex, 26-nt 3' overhang on strand 2
T3 sequence: T1 sequence with N135A

[4] = target: the molecule itself; assay: crystal structure; ExoG-H140A co-crystallised with a 12-bp dsDNA, an RNA/DNA hybrid duplex or an R2-DNA/DNA chimeric duplex (protein to substrate 1:1.2, 2 mM MgCl2), hanging drop vapor diffusion at 4°C; ExoG dimer in the asymmetric unit, each protomer bound to one duplex
[5] = target: T1, ExoG-H140A (catalytically dead); assay: crystal structure (3.0 A); Mg2+; one duplex per protomer; FP: 10 nM FAM substrate, 10 mM HEPES pH 7.4, 150 mM NaCl, 2.5 mM MgCl2; temperature not stated; conditions: protein: recombinant; tags: N-terminal His; chain copies: 2; 12-bp duplex

B1: 12-bp RNA/DNA hybrid (crystal) (DNA:RNA)
RNA: CGGGAUGUCACG
DNA: CGTGACATCCCG
modifications: 5'-phosphate on RNA strand; DNA strand 5'-OH
B1: binds [1].

B2: 12-bp palindromic DNA (crystal) (dsDNA)
DNA 1: CGGGATATCCCG
DNA 2: CGGGATATCCCG
modifications: 5'-OH and 3'-OH
B2: binds [2].

B3: R2-DNA/DNA (mixed)
DNA 1: GCTTAACGCTGACTCGCTAC
DNA 2: GTAGCGAGTCAGCGTTAAGCACTATCATAGCCATCTGCCATTACTG
modifications: strand 1 nt 1-2 (GC) are ribonucleotides, rest DNA; 5'-phosphate on strand 1
For B3, the Kd (ExoG-H140A/F168A) was 3150 ± 259 nM, the Kd [3] was 1030 ± 86 nM and the Kd (ExoG-H140A/N176A) was 930 ± 63 nM.

B4: DNA/DNA (dsDNA)
DNA 1: GCTTAACGCTGACTCGCTAC
DNA 2: B3 DNA 2
modifications: 5'-phosphate on strand 1
B4 gave a Kd (ExoG-H140A/F168A) of 3930 ± 188 nM, a Kd [3] of 1320 ± 79 nM and a Kd (ExoG-H140A/N176A) of 950 ± 63 nM.

B5: RNA/DNA (DNA:RNA)
RNA: GCUUAACGCUGACUCGCUAC
DNA: B3 DNA 2
modifications: strand 1 RNA with 5'-phosphate; strand 2 DNA
In the case of B5, the Kd (ExoG-H140A/F168A) is reported as 250 ± 14 nM, the Kd [3] is reported as 190 ± 10 nM and the Kd (ExoG-H140A/N176A) is reported as 120 ± 8 nM.

B6: human ExoG-H140A (catalytically dead mutant of Exonuclease G, without the N-terminal MLS) (enzyme, UniProt Q9Y2C4 42-368, looked up)
chain: T1 sequence
notes: source: E. coli Rosetta 2 (DE3) pLysS, purified (HisTrap HP, Superdex 200 gel filtration)
B6: binds [4].

B7: 12-nt R2-DNA/DNA chimeric duplex (crystal) (mixed)
DNA 1: CGGGATGTCACG
DNA 2: CGTGACATCCCG
modifications: two 5'-end ribonucleotides and 5'-phosphate on scissile strand; complement DNA 5'-OH
B7: binds [5].
